Among the data in paper PMC4831154, “Expression and characterization of a novel 1,3-regioselective cold-adapted lipase from Rhizomucor endophyticus suitable for biodiesel synthesis” (Biotechnology for Biofuels, 2016) are Km and kcat/Km values, retold here.

What all share (test): purified protein
What all share (type): biochemical, Mucor endophyticus
Holding throughout (settings): 50 mM citrate buffer pH 6.0, 40 °C, 5 min

Substrate in data set [1]: CCCCCCCCCCCCCC(=O)Oc1ccc([N+](=O)[O-])cc1
Substrate in data set [2]: CCCCCCCC(=O)Oc1ccc([N+](=O)[O-])cc1
Substrate in data set [3]: CCCCCCCCCCCC(=O)Oc1ccc([N+](=O)[O-])cc1

The Km is the substrate concentration at which the rate is half of its maximum. A word on the kcat/Km: it is the turnover number divided by the Michaelis constant.

B1: ReLipA (Mucor endophyticus) (protein)
chain: PAAGTKGETSSAAAPHNNATMTASSYILPPIIPSRTKPGNPAFKGDVNAEAESIAKNKKWYEDHGGNFKNITKRDTETVGGMTMDLPANAPPVTTSTGSGVVTASAAQIANFKLYAGIASTAYCRGVVPLGSWTCNNCLKYVPDGKLLVTFSSLLADTNGFVLRSDSQKTIHLVFRGTNSIRSAITDLIFDLATYSPVSGAKVHRGFLASYKEVVNTYFPVVQAQLTAYPSYKVVISGHSLGGAQALLAGMDLYQRDKRLSPSNLSIYTVGCPRVGNPAFAYYVDSTGIPFSRSVNDRDIVPHVPPQAFGYLHPGVEAWDISSRVQICTANIETNKCSNSIVPFTSFVDHLTYYGINEGLCL
notes: ORF 1167 bp; SP-Sepharose purified
For the protein B1, the Km in “purified protein [1]” was found to be 100 ± 10 µM; in “purified protein [2]” it was 2300 ± 210 µM; in “purified protein [3]” it was 640 ± 60 µM. Also, the kcat/Km is 1790 M⁻¹ s⁻¹ in “purified protein [1]”, 387 M⁻¹ s⁻¹ in the data set “purified protein [2]” and 416 M⁻¹ s⁻¹ in “purified protein [3]”.
